These results are taken from patent publication US11110182B2, “Multifunctional RNA nanoparticles and methods for treating cancer and therapeutic resistant cancer” (University of Cincinnati, priority 2016, dated 2021).

The data set concerns BT474 cells. As to the kind of experiment: MTT assay, BT474 cells. Format: cell-based, human. As for the experimental part:
FIG. 3A) BT474 cells were incubated with 10 μg/mL control and pRNA-HER2apt-siMED1 nanoparticles for 48 h, and MED1 mRNA level was determined by real-time PCR. FIG. 3B) BT474 cells were incubated directly with (as indicated by -) or transfected with indicated pRNAs using lipofectamine 2000. At 48 h post treatment, MED1 protein levels were determined by western blotting. FIG. 3C) BT474 cells were treated with 10 μg/mL pRNA nanoparticles for 48 h and assayed for cell viability by MTT assay. FIG. 3D) Cells were treated as above and seeded for migration, and FIG. 3E) invasion transwell assays. Scale bar: 50 μm. FIG. 3F) After pRNA treatment for 48 h, the mRNA levels of ERα target genes TFF-1, FIG. 3G) c-Myc, and FIG. 3H) cyclin D1 in BT474 cells were determined by real-time PCR.
FIG. 4A) BT474 cells were treated with pRNA nanoparticles in combination with vehicle or 1 μM 4-hydroxy-tamoxifen (4-OHT) as indicated for 48 h, and assayed for cell viability by MTT assay. […] FIG. 4E) The number of mammospheres was counted, and FIG. 4F) the mammosphere size was calculated. […]
FIG. 9A) BT474 cells were treated with different concentrations of pRNA nanoparticles as indicated for 48 h. After that, MED1 protein level was determined by western blots, and FIG. 9B) the cell viability was determined by MTT assay. […]

B1: pRNA-HER2apt-siMED1: 3-WJ pRNA nanoparticle bearing a HER2-targeting RNA aptamer and two different MED1 siRNAs; strands p1 SEQ ID NO: 3, p2 SEQ ID NO: 4 (nucleic acid)
chain 1: GGACAGUGAAAGUGAGUCAAAGGAUCAAUCAUGGCCAAAGAUGUUACUUUGAGAGCCUU
chain 2: GGCUCUCAAAGUAACAUCUAAGGCCAUGUGUAUGUGGGGGGAGGACGAUGCGGUCUGCUGUGCUUGAUAUGCCCCAGACGACUCGCCCCCCACAUACUUUGUUGAUCCAAUGACUCACUUUCACUGUCCUU
modifications: 2'-F modification; third strand may lack entry; pRNA-HER2apt-siMED1, p1; pRNA-HER2apt-siMED1, p2
For B1, for the setting “BT474, 48 h, nanoparticles alone”, the “cell growth (MTT)” value is “dose-dependently inhibited”. The “effect on tamoxifen inhibition of cell growth” value (BT474, in combination with 1 μM 4-hydroxy-tamoxifen, 48 h) is given as “significantly enhanced the inhibitory effects of tamoxifen”.
